From the supplement of paper PMC12764529
± gives the half width of the 95% confidence interval.

What was measured:
[1] = folding stability dG unfold (combined trypsin and chymotrypsin); higher = more stable
Summary of the method: (§1)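 Only designs with AlphaFold2 dimer inter-PAE above 15 were retained; each was a mini-protein under 80 residues with no cysteine, in a PA-tagged cDNA display construct. After digestion with trypsin and chymotrypsin and sequencing, K50 was inferred by Bayesian fitting of counts, and unfolding free energy was derived per protease or combined against a sequence-predicted unfolded-state K50 and a shared folded-state K50.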

[2] = folding stability dG unfold from chymotrypsin proteolysis; higher = more stable
Summary of the method: as §1

[3] = folding stability dG unfold from trypsin proteolysis; higher = more stable
Summary of the method: as §1

Sequence | folding stability dG unfold [1] [kcal/mol] | folding stability dG unfold [2] [kcal/mol] | folding stability dG unfold [3] [kcal/mol]
SGSSMGPPDVKERLIDIPSSELSPEVLEEIIEEAIKEGYSVVTINIPEGKYITIELKDGKVTKITEKSLESA [r9_905_JUSTAS] | 1.76 ± 0.088 | 1.75 ± 0.047 | 1.84 ± 0.035
SAMITVPFTFPAEKAEEILEDPELKELLEKLEKELGAKVVKIEVSPETVPSGSKTTEYVKFTFTIEKKGSAG [r14_819_JUSTAS] | 1.55 ± 0.16 | 1.8 ± 0.16 | 1.2 ± 0.032
SAGGSAGGSMDGTVRQPPGGVWEVRARPPAVTPVLVTVVLVTVDADGNLILNPVAGYTHPDELSAGGSAGGS [r12_1027_TrMRF] | 0.848 ± 0.077 | 1.11 ± 0.074 | 0.359 ± 0.032
SAGGSAGGSGLTKELAKKFNVTAIEEFENGLVKILTKPPIKGNPYLAIIDPKNKKVYIIPLNPSAGGSAGGS [r12_944_TrMRF] | 1.29 ± 0.071 | 1.62 ± 0.082 | 0.849 ± 0.037
SAGGSAGGSAGAEITVEYNPETNVLTVTVKVEFTLPDGTKVERTYRATINADGTITIEPESAGGSAGGSAGG [r11_911_TrROS_Hall] | 4.97 ± 0.13 | 5 ± 0.095 | 3.99 ± 0.27
SNPNIKVTTTSETLPDNTLRTTETNPDTGTVTETLVPTDGNGPKTVKTTTTTTDTSTGKKTITTTTTTIPVS [r1_45_JUSTAS] | 0.529 ± 0.085 | 0.99 ± 0.02 | -1.33 ± 0.26
SAGGSAGGSAGVNPNLPNYSVVPTTVTVKVLETFTDPQGNSYTREFTLEVETLIVNPPLLSAGGSAGGSAGG [r17_523_JUSTAS] | 3.59 ± 0.12 | 3.91 ± 0.084 | 2.89 ± 0.12
SMPEKVTFPFNIPLEEYSLEEIKEAVRERLEKEGYKVLKPDLFPEQEKLAKEAPPEAELPLLVEALVVPGSA [r9_1163_TrMRF] | 0.0434 ± 0.28 | -0.19 ± 0.25 | 0.411 ± 0.078
SAGGSKKIVKEMKSKEVIDLAKKLKEKKDIIIVVKLNGKVKVLDLDKVKPIPDKNVKAIIEIKPKKKSAGGS [r16_628_TrMRF] | 0.745 ± 0.29 | 0.901 ± 0.094 | 0.571 ± 0.22
SAGGSMRITKIEIEPNPNGDYKITITMTENGHITVEVMNPNGKPKEVEVNMPNGDPEEVVKEAIKASAGGSA [r2_298_TrROS] | 1.63 ± 0.083 | 2.25 ± 0.1 | 0.686 ± 0.041
SDREFEAVFLVETPEEVEALARELALPGVEVEVHVLPAPYLDPETGEPRPFLLAVVRVRVPVPPPGPGALSA [r9_962_TrMRF] | 2.12 ± 0.088 | 2.56 ± 0.055 | 0.969 ± 0.044
SAGGSAETVVVRIEVRDPETGETLELEIEVRRDMTEEELRELAEELARALKEAGYEVRVEVVRLPPSAGGSA [r15_268_TrROS_Hall] | 2.61 ± 0.091 | 2.26 ± 0.11 | 3.11 ± 0.073
SPPHWMIMPTVERKDPNGEKKTVTYMIPVPPGNWDKMLDNIADEAGDPDLKIKEIEPSKNGFIMIKLKVKSA [r9_1101_TrROS] | 0.0989 ± 0.54 | 0.604 ± 0.48 | 0.497 ± 0.17
SAGMIKITIITENGEEITIEIPENMSEEELKELAEKIAKEIAKKLNIPKVKIKKIKIEKIELTPEQIKKSAG [r5_377_TrROS_Hall] | 1.89 ± 0.36 | 1.97 ± 0.098 | 0.887 ± 0.077
SAGGSAGGSKPLVIRVRLTYYDEKTGKKVKEVELTLTVSEEEAKKLAEELKKLYPNVEVEIFPSAGGSAGGS [r12_342_TrROS_Hall] | 4.84 ± 0.39 | 4.67 ± 0.13 | 4.37 ± 0.53
SAGGSKTLIIKIEKIEEFYPPFNNDKIKIPVSVYDPETGEKVLSNEEVAKILEKLFPGIKIGWEEGSAGGSA [r2_27_TrMRF] | 0.937 ± 0.06 | 0.719 ± 0.036 | 1.06 ± 0.032

Sequence | folding stability dG unfold [1] [kcal/mol] | folding stability dG unfold [2] [kcal/mol] | folding stability dG unfold [3] [kcal/mol]
SAGGSAGGSEKEGTLLVKLINPENPEEKVIPLKFKVKTKEDVDTFLENIKKKYPGVTVEVEDLSAGGSAGGS [r12_65_TrMRF] | 0.643 ± 0.17 | 0.684 ± 0.21 | 0.659 ± 0.049
SAGGPEVKILSKSYNPEKNTVTYNLEVYYGGKKYGALAEIHYDPKTGKYTITVYYPDKPDYKETLTFNSAGG [r13_615_TrMRF] | 2.58 ± 0.21 | 3.03 ± 0.079 | 1.91 ± 0.077
SAGGSAGGSKPKRRRVQIELPLPPGKPITPDHIREFMRPFGAPKVEITNIHPTNGRWIITFELSAGGSAGGS [r20_79_TrROS] | 2.42 ± 0.14 | 2.6 ± 0.11 | 1.98 ± 0.031
SALPYEVEKTSETFLPEEGLTVTEYKITLPDGSELYRRETFDPKTGVRTVTVYDPNGKKLETRTFTVPPSAG [r14_759_JUSTAS] | 2.4 ± 0.046 | 2.49 ± 0.048 | 2.19 ± 0.038
SAGKVIIIPAEKAEPELIKEILKKVPEGTEIRIAFAGPELVELLKELGFEVKPELVKPLTPEDLKKLLESAG [r5_354_TrMRF] | 1.59 ± 0.11 | 1.92 ± 0.092 | 0.747 ± 0.062
SAGGSAAPLVLPVRIYGPNENVTAEASEYDPGTGIVRLTVTHPDGTKTTLTFTGPAALLPPDADLNSAGGSA [r15_596_TrMRF] | 0.764 ± 0.056 | 0.849 ± 0.066 | 0.611 ± 0.023
SAGGSAGGSAGRVVKITLPDGSSLDIDVPADDDLTKEEIEARLTVPPGEKVSIKSIEILEESAGGSAGGSAG [r3_465_JUSTAS] | 0.628 ± 0.085 | 0.899 ± 0.033 | 0.0468 ± 0.037
SAGGSAGGSMKTIELPNGMKITVEKDEETGVYTITITFPDGSKKTITVPKGTSLEDLVIEIKPSAGGSAGGS [r12_261_TrROS_Hall] | 4.04 ± 0.13 | 4.38 ± 0.21 | 2.54 ± 0.095
SAGGSAGGSAGGKTLKLTLTLKVEVKETVTTTTADGTTEERPVKEVEVKLTATIDLSDLSAGGSAGGSAGGS [r10_355_TrROS_Hall] | 4 ± 0.3 | 4.38 ± 0.2 | 3.04 ± 0.24
SAGGGPMPVEKEVEITLEVDPSDPASVRARLEALAASRGVEEITEITEETLPDGSRRVTAKVKWLLPVSAGG [r13_222_JUSTAS] | 0.875 ± 0.087 | 0.397 ± 0.15 | 1.15 ± 0.067
SAGGSAGGSAGDSPSTPVLVTETFTFPVTVTAPNEGGYSTTTSTVTVTVTLEVYVSPSFPSAGGSAGGSAGG [r17_186_JUSTAS] | 2.62 ± 0.061 | 2.92 ± 0.04 | 2.2 ± 0.053
SAGGELENLTVEELKALLEELFPDVEVKVTVEKLPEGYYRITVEIRVRLPNGETRRFELELVIRLEDSAGGS [r16_564_TrROS_Hall] | 5.22 ± 0.28 | 5.36 ± 0.25 | 4.03 ± 0.23
SAGGMQKAIDIAKELGWKILDVDPEKKVVKVKPPDSDVEVTITVDDESTVTITTKNPGSDVVETIPESAGGS [r16_197_JUSTAS] | 1.4 ± 0.16 | 1.47 ± 0.056 | 1.38 ± 0.091
SAGGMNLMIKIENNGEPITFMINSPEDAEEIASNLPELGYPIEVKKLEPQRNEDGNPMVMVEIRIKPSAGGS [r8_336_TrROS] | 1.21 ± 0.23 | 1.63 ± 0.15 | 0.763 ± 0.14
SAPDVVVVPIKIPPGEMSPSDMIEMIEQAFDQFNWPITPDRIEKLVDKAMKNGDSIWAVIRYLREEGWLSAG [r14_364_TrROS] | 2.86 ± 0.076 | 3.022 ± 0.021 | 2.63 ± 0.049
